Experimental data published in article PMC3909270, “The basic keratin 10-binding domain of the virulence-associated pneumococcal serine-rich protein PsrP adopts a novel MSCRAMM fold” (Open Biology, 2014).

B1: Strep-Tag-II BR_(187–385) (KRT10-binding domain of the pneumococcal serine-rich repeat protein PsrP) [S. pneumoniae TIGR4] / KRT10 tail-rod-2B domain (KRT10-TRD) [human] (parent complex)
chain 1: FSGNTIVNGAPAINASLNIAKSETKVYTGEGVDSVYRVPIYYKLKVTNDGSKLTFTYTVTYVNPKTNDLGNISSMRPGYSIYNSGTSTQTMLTLGSDLGKPSGVKNYITDKNGRQVLSYNTSTMTTQGSGYTWGNGAQMNGFFAKKGYGLTSSWTVPITGTDTSFTFTPYAARTDRIGINYFNGGGKVVESSTTSQSLS
chain 2: LKQSLEASLAETEGRYCVQLSQIQAQISALEEQLQQIRAETECQNTEYQQLLDIKIRLENEIQTYRSLLEGEGSSGGGGRGGGSFGGGYGGGSSGGGSSGGGHGGGHGGSSGGGYGGGSSGGGSSGGGYGGGSSSGGHGGSSSGGYGGGSSGGGGGGYGGGSSGGGSSSGGGYGGGSSSGGHKSSSSGSVGESSS

Variants of: B1
Experiment: ELISA; KRT10-TRD coated in wells of ELISA plates; parent: 1; read off a plot
Variant chain 1 FSGNTIVNGAPAINASLNIAKSETKVYTGEGVDSVYRVPIYYKLAVTNDGSKLTFTYTVTYVNPKTNDLGNISSMRPGYSIYNSGTSTQTMLTLGSDLGKPSGVKNYITDKNGRQVLSYNTSTMTTQGSGYTWGNGAQMNGFFAKKGYGLTSSWTVPITGTDTSFTFTPYAARTDRIGINYFNGGGKVVESSTTSQSLS [chain 1 K45A] has a response of about 0.97 normalized absorbance.
In the case of chain 1 FSGNTIVNGAPAINASLNIAKSETKVYTGEGVDSVYRVPIYYKLKVTNDGSKLTFTYTVTYVNPKTNDLGNISSMRPGYSIYNSGTSTQTMLTLGSDLGKPSGVKNYITDKNGRQVLSYNTSTMTTQGSGYTWGAGAQMNGFFAKKGYGLTSSWTVPITGTDTSFTFTPYAARTDRIGINYFNGGGKVVESSTTSQSLS [chain 1 N135A], the response is reported as about 1.1 normalized absorbance.
